Test results from paper PMC10144703, “Molecular Mechanism of Sirtuin 1 Inhibition by Human Immunodeficiency Virus 1 Tat Protein” (Life, 2023).

Legend:
Type in all cases: biochemical
human Sirt5 = biological target: T1, human Sirt5 (Homo sapiens, UniProt Q9NXA8); assay: Continuous coupled enzymatic assay, Sirt5; details: 65 μM Tat-Cys^−, succinylated peptide at substrate Km, n = 3
T1 construct: Sirt5-(34-302) in pET-151/D-TOPO; made in house; host or cells: E. coli CodonPlus(DE3)
T1 sequence (Q9NXA8 34-302): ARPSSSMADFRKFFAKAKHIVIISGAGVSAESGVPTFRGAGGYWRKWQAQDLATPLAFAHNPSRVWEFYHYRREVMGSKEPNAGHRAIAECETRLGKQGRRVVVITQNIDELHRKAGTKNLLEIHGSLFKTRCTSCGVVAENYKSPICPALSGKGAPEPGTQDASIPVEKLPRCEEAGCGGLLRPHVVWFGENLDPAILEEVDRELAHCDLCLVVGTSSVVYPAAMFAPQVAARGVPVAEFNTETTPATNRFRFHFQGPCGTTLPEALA
Excerpt: (§1) A human mini-Sirt1 construct (aa 183-505-(GGGS)2-641-665), as described in [27], was generated in a modified pET-19b with a TEV cleavage site. This construct and human full-length Sirt1 (fl-Sirt1) in pET-15b, Sirt1-(183-664) and Sirt1-(214-664) in pET-15b, mini-Sirt1-∆SBD (aa 214-505-(GGGS)2-641-665) and mini-Sirt1-∆ESA (aa 183–505) in a modified pET-19b with TEV cleavage site, Sirt2-(43-356) in a modified pET-19b with a His6-Sumo tag, Sirt3-(93-399) in a modified pET-32a with Trx-His6 tag and TEV cleavage site, hSirt3-(118-399) in pVFT3S (Sungkyunkwan University, Seoul, Republic of Korea) with His6-Trx tag and TEV cleavage site, Sirt5-(34-302) in pET-151/D-TOPO, and Sirt6-(1-355) in pQE80L.1 were purified as described. […]
(§2) Continuous coupled enzymatic sirtuin activity assays were conducted as described. […] Reactions were monitored for 1 h at room temperature by absorption spectroscopy at 340 nm in a UV/vis plate reader (BioTek). The slope for the linear range (typically 5–25 min) was evaluated after background correction with measurements without NAD^+. Additional control reactions were run by either omitting enzyme or omitting peptide substrate to ensure that the signal measured reflects the NAD+-dependent deacetylation activity of the sirtuin.

human Sirt2 = biological target: T2, human Sirt2 (Homo sapiens, UniProt Q8IXJ6); assay: Continuous coupled enzymatic assay, Sirt2; details: 65 μM Tat-Cys^−, acetylated peptide at substrate Km, n = 3
T2 construct: Sirt2-(43-356) in a modified pET-19b; His6-Sumo; made in house; host or cells: E. coli CodonPlus(DE3)
T2 sequence (Q8IXJ6 43-356): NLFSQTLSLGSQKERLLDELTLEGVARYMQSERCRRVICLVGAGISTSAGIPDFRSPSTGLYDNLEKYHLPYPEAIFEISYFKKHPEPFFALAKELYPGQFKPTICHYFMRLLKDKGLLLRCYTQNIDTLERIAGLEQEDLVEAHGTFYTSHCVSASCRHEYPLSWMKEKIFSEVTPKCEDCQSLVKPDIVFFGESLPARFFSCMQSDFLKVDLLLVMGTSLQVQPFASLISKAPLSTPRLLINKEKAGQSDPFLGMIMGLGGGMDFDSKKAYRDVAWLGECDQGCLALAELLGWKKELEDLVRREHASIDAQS
Excerpt: as §1, §2

human Sirt6 = biological target: T3, human Sirt6 (Homo sapiens, UniProt Q8N6T7); assay: Continuous coupled enzymatic assay, Sirt6; details: 65 μM Tat-Cys^−, myristoylated peptide at substrate Km, n = 3
T3 construct: Sirt6-(1-355) in pQE80L.1; made in house; host or cells: E. coli CodonPlus(DE3)
Excerpt: as §1, §2

T3 sequence (Q8N6T7 whole entry): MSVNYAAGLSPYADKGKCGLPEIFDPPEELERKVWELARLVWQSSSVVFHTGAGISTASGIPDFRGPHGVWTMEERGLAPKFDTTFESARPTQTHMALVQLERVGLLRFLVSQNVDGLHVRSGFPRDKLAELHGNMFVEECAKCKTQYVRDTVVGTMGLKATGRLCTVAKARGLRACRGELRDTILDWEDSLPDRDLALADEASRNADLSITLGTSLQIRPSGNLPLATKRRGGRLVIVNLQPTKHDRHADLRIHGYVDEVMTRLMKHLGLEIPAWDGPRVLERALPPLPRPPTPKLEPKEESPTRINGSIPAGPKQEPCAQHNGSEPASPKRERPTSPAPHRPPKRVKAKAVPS

B1: Tat-Cys^−: Recombinant 86-residue HIV1 Zaire 2 Tat with C22S, C25A, C27A, C30S, C31A, C34S, and C37A (protein)
chain: MDPVDPNIEPWNHPGSQPKTASNRAHAKKSAYHSQVAFITKGLGISYGRKKRRQRRRPSQGGQTHQDPIPKQPSSQPRGDPTGPKE
Human Sirt5
  inhibitory effect on Sirt5, continuous assay: no statistically significant effect was observed
Human Sirt2
  inhibitory effect on Sirt2, continuous assay: pronounced inhibitory effects
Human Sirt6
  inhibitory effect on Sirt6, continuous assay: no statistically significant effect was observed
